Literature values as cited in patent US7514409B2, “VLA-4 antagonists” (Merck & Co., Inc., priority 2004, dated 2009).

Target: T1, VLA-4 (Homo sapiens, UniProt P13612)
T1 construct: host or cells: circulating VLA-4-bearing leukocytes of trial subjects (in vivo)
Settings: early clinical trials

lymphocytosis (a surrogate marker for blockade of VLA-4 function): observed
receptor occupancy: > 80%
Substance: natalizumab: humanized monoclonal antibody against α4
